B1: ADI-34141 (antibody, V domains shown)
VH: EVQLLESGGGLVQPGGSLRLSCAASGFTFSSYAMSWVRQAPGKGLEWVSTISGSGGSTYYADSVKGRFTISRDNSKNTLYLQMNSLRAEDTAVYYCARLGGRRGSGSSYYYYYGMDVWGQGTTVTVSS
VL: not shown
notes: anti-ID IgG
B2: ADI-34144 (antibody, V domains shown)
VH: B1 VH
VL: not shown
notes: anti-ID IgG

Key:
ADI-26906 IgG = target: T1, ADI-26906 IgG; test: SPR Carterra avidity, yeast anti-ID, *koff limit
T1 construct: anti-CD3 IgG
Outline: (§1)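 Surface plasmon resonance on a Carterra LSA at 25° C, HBSTE buffer. The anti-CD3 antibody is Fc-captured (100 nM, 5 min) and the anti-idiotype antibody serves as analyte; dissociation lasts 300s and the surface is regenerated with 10 mM glycine pH 1.7.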

ADI-26913 IgG = target: T2, ADI-26913 IgG; test: SPR Carterra avidity, yeast anti-ID, *koff limit
T2 construct: anti-CD3 IgG
Outline: as §1

ADI-26924 [1] = target: T3, ADI-26924; test: SPR Carterra avidity, yeast anti-ID, *koff limit
T3 construct: anti-CD3 antibody made in CHO cells, captured by anti-human Fc
T3 sequence (VH, as listed by the source, chain 1 of 2): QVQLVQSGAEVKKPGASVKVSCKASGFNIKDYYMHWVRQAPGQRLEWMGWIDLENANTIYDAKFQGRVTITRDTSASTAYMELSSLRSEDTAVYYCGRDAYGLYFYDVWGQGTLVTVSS
T3 sequence (VL, as listed by the source, chain 2 of 2): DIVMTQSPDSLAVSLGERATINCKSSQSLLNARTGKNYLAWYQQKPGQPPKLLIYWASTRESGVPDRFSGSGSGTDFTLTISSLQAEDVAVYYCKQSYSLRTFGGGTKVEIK
Outline: as §1

ADI-26943 = target: T4, ADI-26943; test: SPR Carterra avidity, yeast anti-ID, *koff limit
T4 construct: anti-CD3 antibody made in CHO cells, captured by anti-human Fc
Outline: as §1

ADI-26916 IgG [2] = target: T5, ADI-26916 IgG; test: SPR Carterra avidity, yeast anti-ID, *koff limit
T5 construct: anti-CD3 IgG
T5 sequence (VH, as listed by the source, chain 1 of 2): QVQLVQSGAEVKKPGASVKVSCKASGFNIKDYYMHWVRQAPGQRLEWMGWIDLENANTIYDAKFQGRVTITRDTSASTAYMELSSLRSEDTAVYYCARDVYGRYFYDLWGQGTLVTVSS
T5 sequence (VL, as listed by the source, chain 2 of 2): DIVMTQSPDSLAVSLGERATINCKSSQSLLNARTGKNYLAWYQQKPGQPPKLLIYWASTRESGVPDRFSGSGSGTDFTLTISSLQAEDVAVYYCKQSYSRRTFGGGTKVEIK
Outline: as §1

ADI-26920 IgG = target: T6, ADI-26920 IgG; test: SPR Carterra avidity, yeast anti-ID, *koff limit
T6 construct: anti-CD3 IgG
Outline: as §1

ADI-76357 = target: T7, ADI-76357; test: SPR Carterra avidity, yeast anti-ID, *koff limit
T7 construct: anti-CD3 antibody made in CHO cells, captured by anti-human Fc
T7 sequence (VH, as listed by the source, chain 1 of 2): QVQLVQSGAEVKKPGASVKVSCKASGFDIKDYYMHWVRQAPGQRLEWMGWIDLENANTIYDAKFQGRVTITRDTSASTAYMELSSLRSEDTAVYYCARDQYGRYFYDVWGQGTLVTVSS
Outline: as §1

ADI-26919 [3] = target: T8, ADI-26919; test: SPR Carterra avidity, yeast anti-ID, *koff limit
T8 construct: anti-CD3 antibody made in CHO cells, captured by anti-human Fc
T8 sequence (VH, as listed by the source limits assumed, chain 1 of 2): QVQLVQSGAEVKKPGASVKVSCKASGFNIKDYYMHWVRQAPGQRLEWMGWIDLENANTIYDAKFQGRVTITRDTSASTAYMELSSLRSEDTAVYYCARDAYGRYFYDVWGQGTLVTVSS
Outline: as §1

ADI-22523 IgG = target: T9, ADI-22523 IgG; test: BLI; tip anti-ID IgG, solution ADI-22523 IgG
T9 construct: anti-CD3 IgG
T9 sequence (VH, as listed by the source limits assumed, chain 1 of 2): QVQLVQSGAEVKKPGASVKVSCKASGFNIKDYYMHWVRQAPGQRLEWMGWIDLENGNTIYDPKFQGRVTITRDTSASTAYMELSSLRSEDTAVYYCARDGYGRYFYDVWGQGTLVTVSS
T9 sequence (VL, as listed by the source limits assumed, chain 2 of 2): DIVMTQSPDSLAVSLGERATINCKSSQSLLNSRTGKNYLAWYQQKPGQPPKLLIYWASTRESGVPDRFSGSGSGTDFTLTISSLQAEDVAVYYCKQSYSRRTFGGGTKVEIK
Outline: (§2)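 Anti-ID IgG was captured on AHC biosensors, equilibrated in assay buffer for 30 min, then baselined for 60 s. KD = koff/kon came from a 1:1 binding fit.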

ADI-22523 Fab = target: T10, ADI-22523 Fab; test: BLI; tip anti-ID IgG, solution ADI-22523 Fab
T10 construct: anti-CD3 Fab by papain digestion of the IgG
Outline: as §2

ADI-67445 = target: T11, ADI-67445; test: SPR Carterra, yeast anti-ID
T11 construct: anti-CD3 antibody made in CHO cells, captured by anti-human Fc
Outline: as §1

CTL-62223 = target: T12, CTL-62223; test: SPR Carterra, yeast anti-ID
T12 construct: also called mosunetuzumab
Outline: as §1

ADI-70330 = target: T13, ADI-70330; test: SPR Carterra, yeast anti-ID
T13 construct: anti-CD3 antibody made in CHO cells, captured by anti-human Fc
Outline: as §1

ADI-26915 = target: T14, ADI-26915; test: SPR Carterra, yeast anti-ID
T14 construct: anti-CD3 antibody made in CHO cells, captured by anti-human Fc
T14 sequence (VH, as listed by the source, chain 1 of 2): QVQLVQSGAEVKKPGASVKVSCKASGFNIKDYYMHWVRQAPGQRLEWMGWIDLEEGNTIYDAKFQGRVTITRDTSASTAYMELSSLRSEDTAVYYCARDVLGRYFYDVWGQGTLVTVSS
Outline: as §1

ADI-70327 = target: T15, ADI-70327; test: SPR Carterra, yeast anti-ID
T15 construct: anti-CD3 antibody made in CHO cells, captured by anti-human Fc
Outline: as §1

CTL-62240 = target: T16, CTL-62240; test: SPR Carterra, yeast anti-ID
T16 construct: also called ONO-4685
T16 sequence (VH, as listed by the source, chain 1 of 2): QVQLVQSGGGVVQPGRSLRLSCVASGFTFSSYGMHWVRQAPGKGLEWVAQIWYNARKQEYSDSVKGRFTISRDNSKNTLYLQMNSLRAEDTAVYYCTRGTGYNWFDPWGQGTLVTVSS
T16 sequence (VL, as listed by the source, chain 2 of 2): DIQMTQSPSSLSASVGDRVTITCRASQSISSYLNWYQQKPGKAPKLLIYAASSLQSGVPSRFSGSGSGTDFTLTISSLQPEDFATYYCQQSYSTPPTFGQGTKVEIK
Outline: as §1

CTL-62227 = target: T17, CTL-62227; test: SPR Carterra, yeast anti-ID
T17 construct: also called odronextamab
Outline: as §1

CTL-62228 = target: T18, CTL-62228; test: SPR Carterra, yeast anti-ID
T18 construct: also called glofitamab
Outline: as §1

ADI-26912 = target: T19, ADI-26912; test: SPR Carterra avidity, yeast anti-ID
T19 construct: anti-CD3 antibody made in CHO cells, captured by anti-human Fc
Outline: as §1

ADI-48576 = target: T20, ADI-48576; test: SPR Carterra avidity, yeast anti-ID
T20 construct: pH-dependent anti-CD3 antibody made in CHO cells
T20 sequence (VH, as listed by the source, chain 1 of 2): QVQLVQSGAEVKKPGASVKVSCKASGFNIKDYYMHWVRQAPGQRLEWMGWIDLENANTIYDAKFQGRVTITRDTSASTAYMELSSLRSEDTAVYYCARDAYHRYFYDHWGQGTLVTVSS
T20 sequence (VL, as listed by the source, chain 2 of 2): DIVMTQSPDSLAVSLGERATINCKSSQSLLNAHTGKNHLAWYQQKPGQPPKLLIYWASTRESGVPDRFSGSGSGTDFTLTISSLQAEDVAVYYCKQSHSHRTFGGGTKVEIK
Outline: as §1

ADI-76359 = target: T21, ADI-76359; test: SPR Carterra avidity, yeast anti-ID
T21 construct: anti-CD3 antibody made in CHO cells, captured by anti-human Fc
T21 sequence (VH, as listed by the source, chain 1 of 2): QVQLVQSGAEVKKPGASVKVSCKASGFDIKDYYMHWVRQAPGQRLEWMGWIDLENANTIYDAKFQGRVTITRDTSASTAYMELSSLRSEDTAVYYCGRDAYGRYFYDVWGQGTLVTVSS
Outline: as §1

ADI-26921 IgG [4] = target: T22, ADI-26921 IgG; test: SPR Carterra avidity, yeast anti-ID
T22 construct: anti-CD3 IgG
Outline: as §1

ADI-48587 [5] = target: T23, ADI-48587; test: SPR Carterra avidity, yeast anti-ID
T23 construct: pH-dependent anti-CD3 antibody made in CHO cells
Outline: as §1

ADI-74967 [6] = target: T24, ADI-74967; test: SPR Carterra avidity, yeast anti-ID
T24 construct: pH-dependent anti-CD3 antibody made in CHO cells
T24 sequence (VH, as listed by the source, chain 1 of 2): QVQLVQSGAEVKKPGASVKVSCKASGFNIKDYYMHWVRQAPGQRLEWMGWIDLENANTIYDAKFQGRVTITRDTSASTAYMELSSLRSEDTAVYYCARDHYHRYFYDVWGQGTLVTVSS
T24 sequence (VL, as listed by the source, chain 2 of 2): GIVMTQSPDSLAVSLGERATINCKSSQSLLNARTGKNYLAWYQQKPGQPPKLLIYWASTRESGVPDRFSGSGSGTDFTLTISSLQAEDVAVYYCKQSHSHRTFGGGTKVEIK
Outline: as §1

ADI-70326 [7] = target: T25, ADI-70326; test: SPR Carterra avidity, yeast anti-ID
T25 construct: anti-CD3 antibody made in CHO cells, captured by anti-human Fc
T25 sequence (VH, as listed by the source limits assumed, chain 1 of 2): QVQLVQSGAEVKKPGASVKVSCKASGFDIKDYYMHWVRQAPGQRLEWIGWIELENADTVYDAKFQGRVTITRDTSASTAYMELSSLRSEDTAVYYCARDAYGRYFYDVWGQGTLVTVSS
T25 sequence (VL, as listed by the source limits assumed, chain 2 of 2): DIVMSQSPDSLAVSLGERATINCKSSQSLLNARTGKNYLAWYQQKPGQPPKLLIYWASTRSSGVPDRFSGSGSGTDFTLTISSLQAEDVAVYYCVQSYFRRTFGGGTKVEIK
Outline: as §1

ADI-74966 = target: T26, ADI-74966; test: SPR Carterra avidity, yeast anti-ID
T26 construct: pH-dependent anti-CD3 antibody made in CHO cells
T26 sequence (VL, as listed by the source, chain 2 of 2): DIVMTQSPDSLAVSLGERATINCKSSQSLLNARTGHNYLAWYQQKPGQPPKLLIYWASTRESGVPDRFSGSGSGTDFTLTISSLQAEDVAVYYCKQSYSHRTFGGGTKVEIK
Outline: as §1

ADI-76360 = target: T27, ADI-76360; test: SPR Carterra avidity, yeast anti-ID
T27 construct: anti-CD3 antibody made in CHO cells, captured by anti-human Fc
Outline: as §1

ADI-48592 = target: T28, ADI-48592; test: SPR Carterra avidity, yeast anti-ID
T28 construct: pH-dependent anti-CD3 antibody made in CHO cells
Outline: as §1

ADI-76362 = target: T29, ADI-76362; test: SPR Carterra avidity, yeast anti-ID
T29 construct: anti-CD3 antibody made in CHO cells, captured by anti-human Fc
T29 sequence (VH, as listed by the source, chain 1 of 2): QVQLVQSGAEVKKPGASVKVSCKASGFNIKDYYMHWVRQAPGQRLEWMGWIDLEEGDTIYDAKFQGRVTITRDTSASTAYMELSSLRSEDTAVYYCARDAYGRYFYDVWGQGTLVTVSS
Outline: as §1

ADI-26909 [8] = target: T30, ADI-26909; test: SPR Carterra avidity, yeast anti-ID
T30 construct: anti-CD3 antibody made in CHO cells, captured by anti-human Fc
Outline: as §1

ADI-48650 = target: T31, ADI-48650; test: SPR Carterra avidity, yeast anti-ID
T31 construct: pH-dependent anti-CD3 antibody made in CHO cells
T31 sequence (VH, as listed by the source, chain 1 of 2): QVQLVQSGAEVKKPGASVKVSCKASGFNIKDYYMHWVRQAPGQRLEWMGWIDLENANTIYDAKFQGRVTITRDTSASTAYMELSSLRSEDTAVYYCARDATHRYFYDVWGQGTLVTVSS
T31 sequence (VL, as listed by the source, chain 2 of 2): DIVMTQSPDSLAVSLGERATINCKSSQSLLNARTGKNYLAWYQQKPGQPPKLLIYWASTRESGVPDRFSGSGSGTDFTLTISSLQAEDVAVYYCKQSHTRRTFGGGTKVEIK
Outline: as §1

ADI-76361 = target: T32, ADI-76361; test: SPR Carterra avidity, yeast anti-ID
T32 construct: anti-CD3 antibody made in CHO cells, captured by anti-human Fc
Outline: as §1

ADI-74968 = target: T33, ADI-74968; test: SPR Carterra avidity, yeast anti-ID
T33 construct: pH-dependent anti-CD3 antibody made in CHO cells
Outline: as §1

ADI-67450 = target: T34, ADI-67450; test: SPR Carterra avidity, yeast anti-ID
T34 construct: anti-CD3 antibody made in CHO cells, captured by anti-human Fc
T34 sequence (VH, as listed by the source limits assumed, chain 1 of 2): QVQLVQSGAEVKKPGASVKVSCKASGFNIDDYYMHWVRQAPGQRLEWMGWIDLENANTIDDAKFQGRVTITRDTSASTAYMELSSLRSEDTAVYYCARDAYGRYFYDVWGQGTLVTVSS
Outline: as §1

ADI-67447 = target: T35, ADI-67447; test: SPR Carterra avidity, yeast anti-ID
T35 construct: anti-CD3 antibody made in CHO cells, captured by anti-human Fc
Outline: as §1

ADI-74965 = target: T36, ADI-74965; test: SPR Carterra avidity, yeast anti-ID
T36 construct: pH-dependent anti-CD3 antibody made in CHO cells
Outline: as §1

ADI-76358 = target: T37, ADI-76358; test: SPR Carterra avidity, yeast anti-ID
T37 construct: anti-CD3 antibody made in CHO cells, captured by anti-human Fc
Outline: as §1

ADI-50024 = target: T38, ADI-50024; test: SPR Carterra avidity, yeast anti-ID
T38 construct: anti-CD3 antibody made in CHO cells, captured by anti-human Fc
T38 sequence (VH, as listed by the source limits assumed, chain 1 of 2): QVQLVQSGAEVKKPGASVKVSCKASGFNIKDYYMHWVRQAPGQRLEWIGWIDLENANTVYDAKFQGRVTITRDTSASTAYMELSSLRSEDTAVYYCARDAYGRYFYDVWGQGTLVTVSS
Outline: as §1

ADI-26921 IgG [9] = target: T22, ADI-26921 IgG; test: SPR Carterra, yeast anti-ID
Outline: as §1

ADI-48587 [10] = target: T23, ADI-48587; test: SPR Carterra, yeast anti-ID
Outline: as §1

ADI-74967 [11] = target: T24, ADI-74967; test: SPR Carterra, yeast anti-ID
Outline: as §1

ADI-70326 [12] = target: T25, ADI-70326; test: SPR Carterra, yeast anti-ID
Outline: as §1

ADI-26909 [13] = target: T30, ADI-26909; test: SPR Carterra, yeast anti-ID
Outline: as §1

ADI-26924 [14] = target: T3, ADI-26924; test: SPR Carterra avidity, yeast anti-ID
Outline: as §1

ADI-26916 IgG [15] = target: T5, ADI-26916 IgG; test: SPR Carterra avidity, yeast anti-ID
Outline: as §1

ADI-26919 [16] = target: T8, ADI-26919; test: SPR Carterra avidity, yeast anti-ID
Outline: as §1

Binder	Kd (ADI-26906 IgG)	Kd (ADI-26913 IgG)	Kd (ADI-26943)	Kd (ADI-26920 IgG)	Kd (ADI-76357)	Kd (ADI-22523 IgG)	Kd (ADI-22523 Fab)	binding result (ADI-67445)	binding result (CTL-62223)	binding result (ADI-70330)	binding result (ADI-26915)	binding result (ADI-70327)	binding result (CTL-62240)	binding result (CTL-62227)	binding result (CTL-62228)	binding result (ADI-26912)	Kd (ADI-76359)	Kd (ADI-74966)	binding result (ADI-48592)	binding result (ADI-76362)	further results
B1	0.013 µM	0.007 µM	0.0057 µM	0.0071 µM	0.0076 µM	0.00283 µM	0.0165 µM	no binding (tested: up to 200 nM)	no binding (tested: up to 200 nM)	no binding (tested: up to 200 nM)	no binding (tested: up to 200 nM)	no binding (tested: up to 200 nM)	no binding (tested: up to 200 nM)	no binding (tested: up to 200 nM)	no binding (tested: up to 200 nM)	binds	0.014 µM	0.051 µM	binds	binds	Kd (ADI-26924 [1]): 0.0054 µM; Kd (ADI-26916 IgG [2]): 0.01 µM; Kd (ADI-26919 [3]): 0.01 µM; Kd (ADI-48576): 0.022 µM; binding result (ADI-26921 IgG [4]): binds; binding result (ADI-48587 [5]): binds; Kd (ADI-74967 [6]): 0.032 µM; binding result (ADI-70326 [7]): binds; Kd (ADI-76360): 0.054 µM; binding result (ADI-26909 [8]): binds; binding result (ADI-48650): binds; binding result (ADI-76361): binds; Kd (ADI-74968): 0.063 µM; binding result (ADI-67450): binds; Kd (ADI-67447): 0.017 µM; Kd (ADI-74965): 0.033 µM; binding result (ADI-76358): binds; binding result (ADI-50024): binds
B2	0.012 µM	0.0086 µM	0.0051 µM	0.0075 µM	0.0063 µM	0.0026 µM	0.00617 µM	no binding (tested: up to 200 nM)	no binding (tested: up to 200 nM)	no binding (tested: up to 200 nM)	no binding (tested: up to 200 nM)	no binding (tested: up to 200 nM)	no binding (tested: up to 200 nM)	no binding (tested: up to 200 nM)	no binding (tested: up to 200 nM)	binds	0.017 µM	0.059 µM	binds	binds	binding result (ADI-26921 IgG [9]): no binding (tested: up to 200 nM); binding result (ADI-48587 [10]): no binding (tested: up to 200 nM); binding result (ADI-74967 [11]): no binding (tested: up to 200 nM); binding result (ADI-70326 [12]): no binding (tested: up to 200 nM); binding result (ADI-26909 [13]): no binding (tested: up to 200 nM); binding result (ADI-48576): binds; Kd (ADI-26924 [14]): 0.0049 µM; binding result (ADI-76360): binds; Kd (ADI-26916 IgG [15]): 0.016 µM; binding result (ADI-48650): binds; binding result (ADI-76361): binds; Kd (ADI-74968): 0.072 µM; binding result (ADI-67450): binds; Kd (ADI-67447): 0.022 µM; binding result (ADI-74965): binds; binding result (ADI-76358): binds; binding result (ADI-50024): binds; Kd (ADI-26919 [16]): 0.032 µM

Source: patent publication US20250019439A1 (Adimab, published 2025)
